For three molecules, EC50 results are on record in patent publication US20230242658A1 (published 2023).

Experiment [1] deals with human PD-L1 on CHO-K1 cells (human, UniProt Q9NZQ7 19-290). Kind of experiment: FACS; MDA-MB-231 cells.
Experiment [2] concerns the target human 4-1BB on CHO-K1 cells (human, UniProt Q07011 24-255). Kind of experiment: FACS.

human PD-L1 on CHO-K1 cells, sequence (Q9NZQ7 19-290): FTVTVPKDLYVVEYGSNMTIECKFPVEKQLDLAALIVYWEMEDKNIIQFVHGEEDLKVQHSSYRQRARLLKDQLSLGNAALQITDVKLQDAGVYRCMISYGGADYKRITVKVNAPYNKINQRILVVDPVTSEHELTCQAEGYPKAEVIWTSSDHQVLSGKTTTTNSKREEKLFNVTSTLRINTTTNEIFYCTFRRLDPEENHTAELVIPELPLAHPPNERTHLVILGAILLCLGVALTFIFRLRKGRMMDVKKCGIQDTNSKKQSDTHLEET

B1: PR007146 (bispecific antibody)
light: DIQMTQSPSTLSASVGDRVTVTCRASQSIYIWLAWYQQKPGKAPNLLIYKASSLETGVPSRFSGSGSGTEFTLTISSLQPDDFATYYCQQYYGSSRTFGQGTKVEIKRTVAAPSVFIFPPSDEQLKSGTASVVCLLNNFYPREAKVQWKVDNALQSGNSQESVTEQDSKDSTYSLSSTLTLSKADYEKHKVYACEVTHQGLSSPVTKSFNRGEC
heavy: EVQLVESGGGLVQPGGSLRLSCAASGFTFSSYWMSWVRQAPGKGLEWVANIKQEGSEKYYVDSVKGRFTISRDNAKNSLYLQMNSLRAEDTAVYYCARDRAVAGAFDIWGQGTMVTVSSASTKGPSVFPLAPSSKSTSGGTAALGCLVKDYFPEPVTVSWNSGALTSGVHTFPAVLQSSGLYSLSSVVTVPSSSLGTQTYICNVNHKPSNTKVDKKVEPKSCDKTHTCPPCPAPEAAGAPSVFLFPPKPKDTLMISRTPEVTCVVVDVSHEDPEVKFNWYVDGVEVHNAKTKPREEQYNSTYRVVSVLTVLHQDWLNGKEYKCKVSNKALPAPIEKTISKAKGQPREPQVYTLPPSREEMTKNQVSLTCLVKGFYPSDIAVEWESNGQPENNYKTTPPVLDSDGSFFLYSKLTVDKSRWQQGNVFSCSVMHEALHNHYTQKSLSLSPGGGSGGSEVQLVESGGGLVKPGGSLRLSCAASGFTFSDYYMSWVRQAPGKGLEWVSYISSSGSTIDYADSVKGRFTISRDNAKNSLFLEMNSLRAEDTAVYYCAREREEVAGTLDFDNWGQGTLVTVSS
On to B1, for which the EC50 in experiment [1] was found to be 0.327 nM; in experiment [2] it was 6.95 nM.

B2: PR007143 (bispecific antibody)
light: DIQMTQSPSTLSASVGDRVTVTCRASQSIYIWLAWYQQKPGKAPNLLIYKASSLETGVPSRFSGSGSGTEFTLTISSLQPDDFATYYCQQYYGSSRTFGQGTKVEIKRTVAAPSVFIFPPSDEQLKSGTASVVCLLNNFYPREAKVQWKVDNALQSGNSQESVTEQDSKDSTYSLSSTLTLSKADYEKHKVYACEVTHQGLSSPVTKSFNRGEC
heavy: EVQLVESGGGLVQPGGSLRLSCAASGFTFSSYWMSWVRQAPGKGLEWVANIKQEGSEKYYVDSVKGRFTISRDNAKNSLYLQMNSLRAEDTAVYYCARDRAVAGAFDIWGQGTMVTVSSASTKGPSVFPLAPSSKSTSGGTAALGCLVKDYFPEPVTVSWNSGALTSGVHTFPAVLQSSGLYSLSSVVTVPSSSLGTQTYICNVNHKPSNTKVDKKVEPKSCDKTHTCPPCPAPEAAGAPSVFLFPPKPKDTLMISRTPEVTCVVVDVSHEDPEVKFNWYVDGVEVHNAKTKPREEQYNSTYRVVSVLTVLHQDWLNGKEYKCKVSNKALPAPIEKTISKAKGQPREPQVYTLPPSREEMTKNQVSLTCLVKGFYPSDIAVEWESNGQPENNYKTTPPVLDSDGSFFLYSKLTVDKSRWQQGNVFSCSVMHEALHNHYTQKSLSLSPGGGSGGSEVQLVESGGGLVKPGGSLRLSCVASGFTFSDYYMSWFRQAPGKGLEWVSYISGSGTTIDYADSVKGRFTISRDNAKNSLYLQMNSLRAEDTAVYYCAREREAVAGTLDFDNWGQGTPVTVSS
With B2, the EC50 in experiment [1] came to 0.315 nM; in experiment [2] it was 3.4 nM.

B3: PR007145 (bispecific antibody)
light: DIQMTQSPSTLSASVGDRVTVTCRASQSIYIWLAWYQQKPGKAPNLLIYKASSLETGVPSRFSGSGSGTEFTLTISSLQPDDFATYYCQQYYGSSRTFGQGTKVEIKRTVAAPSVFIFPPSDEQLKSGTASVVCLLNNFYPREAKVQWKVDNALQSGNSQESVTEQDSKDSTYSLSSTLTLSKADYEKHKVYACEVTHQGLSSPVTKSFNRGEC
heavy: EVQLVESGGGLVQPGGSLRLSCAASGFTFSSYWMSWVRQAPGKGLEWVANIKQEGSEKYYVDSVKGRFTISRDNAKNSLYLQMNSLRAEDTAVYYCARDRAVAGAFDIWGQGTMVTVSSASTKGPSVFPLAPSSKSTSGGTAALGCLVKDYFPEPVTVSWNSGALTSGVHTFPAVLQSSGLYSLSSVVTVPSSSLGTQTYICNVNHKPSNTKVDKKVEPKSCDKTHTCPPCPAPEAAGAPSVFLFPPKPKDTLMISRTPEVTCVVVDVSHEDPEVKFNWYVDGVEVHNAKTKPREEQYNSTYRVVSVLTVLHQDWLNGKEYKCKVSNKALPAPIEKTISKAKGQPREPQVYTLPPSREEMTKNQVSLTCLVKGFYPSDIAVEWESNGQPENNYKTTPPVLDSDGSFFLYSKLTVDKSRWQQGNVFSCSVMHEALHNHYTQKSLSLSPGGGSGGSEVQLVESGGGLVKPGGSLRLSCAASGFTFSDYYMSWIRQAPGKGLEWVSYISRSGSTIYYADSVKGRFTISRDNAKNSLYLQMNSLRAEDTAVYYCARVRPGGSGNYWDWFDPWGQGTLVTVSS
As to B3, the concentration for a half-maximal effect (EC50) amounted to 0.286 nM in experiment [1] and 22.4 nM in experiment [2].
